Laboratory results taken from patent EP2698431B1 (Chugai Seiyaku Kabushiki Kaisha, dated 2020).
Like-named read-outs stand apart in the source and are kept apart here.

How the values were obtained:
[1] = target: T1, human FcRn (soluble, complexed with β2-microglobulin) (human, UniProt P61769 21-119); assay: SPR pH7.0
[2] = target: T2, mouse FcγRIIb (mouse, UniProt P08101 40-217, limits assumed); assay: SPR pH7.4
T2 construct: bought; also called mFcgRIIb; mFcgRII
T2 sequence (looked up): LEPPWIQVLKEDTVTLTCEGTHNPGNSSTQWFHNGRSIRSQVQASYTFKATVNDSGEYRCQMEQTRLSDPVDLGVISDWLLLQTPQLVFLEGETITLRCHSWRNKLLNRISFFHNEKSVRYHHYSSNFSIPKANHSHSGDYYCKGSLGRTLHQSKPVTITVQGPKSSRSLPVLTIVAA

[3] = target: T3, mouse FcγRIII (mouse, UniProt P08508 31-215); assay: SPR pH7.4
T3 construct: bought; also called mFcgRIII
T3 sequence (looked up): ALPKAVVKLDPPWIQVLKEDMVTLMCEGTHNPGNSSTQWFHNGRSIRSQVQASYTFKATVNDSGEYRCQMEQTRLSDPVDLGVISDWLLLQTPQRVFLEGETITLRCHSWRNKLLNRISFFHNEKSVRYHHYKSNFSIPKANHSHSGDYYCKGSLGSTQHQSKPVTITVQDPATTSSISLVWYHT

[4] = target: T4, mouse FcγRIV (mouse, UniProt A0A0B4J1G0 21-203); assay: SPR pH7.4
T4 construct: bought; also called mFcgRIV
T4 sequence: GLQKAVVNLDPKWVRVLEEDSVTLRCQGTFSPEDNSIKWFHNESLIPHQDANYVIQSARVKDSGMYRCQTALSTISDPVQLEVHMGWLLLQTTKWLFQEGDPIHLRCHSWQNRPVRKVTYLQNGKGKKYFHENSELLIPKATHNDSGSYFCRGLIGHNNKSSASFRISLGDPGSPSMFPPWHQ

[5] = target: T5, mouse FcγRI (mouse, UniProt P26151 25-297); assay: SPR pH7.4
T5 construct: bought; also called mFcgRI
T5 sequence (looked up): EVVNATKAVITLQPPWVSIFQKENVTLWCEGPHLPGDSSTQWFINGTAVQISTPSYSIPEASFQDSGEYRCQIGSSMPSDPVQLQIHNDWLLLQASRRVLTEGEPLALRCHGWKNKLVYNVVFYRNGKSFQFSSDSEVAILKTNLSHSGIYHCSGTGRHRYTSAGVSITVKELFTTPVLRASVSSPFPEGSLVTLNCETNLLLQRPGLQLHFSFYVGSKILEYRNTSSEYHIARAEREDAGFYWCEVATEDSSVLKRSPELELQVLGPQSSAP

[6] = target: T1, human FcRn (soluble, complexed with …); assay: SPR pH7.0; remark: listed apart in the source
[7] = target: T1, human FcRn (soluble, complexed with …); assay: SPR pH7.0; remark: listed apart in the source
[8] = target: T1, human FcRn (soluble, complexed with …); assay: SPR pH7.0; remark: listed apart in the source
[9] = target: T1, human FcRn (soluble, complexed with …); assay: SPR pH7.0; remark: listed apart in the source
[10] = target: T2, mouse FcγRIIb; assay: SPR pH7.4; remark: listed apart in the source
[11] = target: T3, mouse FcγRIII; assay: SPR pH7.4; remark: listed apart in the source
[12] = target: T4, mouse FcγRIV; assay: SPR pH7.4; remark: listed apart in the source
[13] = target: T5, mouse FcγRI; assay: SPR pH7.4; remark: listed apart in the source
[14] = target: T1, human FcRn (soluble, complexed with …); assay: SPR pH7.0; remark: listed apart in the source
[15] = target: T1, human FcRn (soluble, complexed with …); assay: SPR pH7.0; remark: listed apart in the source
[16] = target: T1, human FcRn (soluble, complexed with …); assay: SPR pH7.0; remark: listed apart in the source
[17] = target: T1, human FcRn (soluble, complexed with …); assay: SPR pH7.0; remark: listed apart in the source
[18] = target: T6, soluble human IL-6 receptor (human, UniProt P08887 20-357); assay: SPR 37C, 3 µM CaCl2
T6 construct: also called hsIL-6R
T6 sequence: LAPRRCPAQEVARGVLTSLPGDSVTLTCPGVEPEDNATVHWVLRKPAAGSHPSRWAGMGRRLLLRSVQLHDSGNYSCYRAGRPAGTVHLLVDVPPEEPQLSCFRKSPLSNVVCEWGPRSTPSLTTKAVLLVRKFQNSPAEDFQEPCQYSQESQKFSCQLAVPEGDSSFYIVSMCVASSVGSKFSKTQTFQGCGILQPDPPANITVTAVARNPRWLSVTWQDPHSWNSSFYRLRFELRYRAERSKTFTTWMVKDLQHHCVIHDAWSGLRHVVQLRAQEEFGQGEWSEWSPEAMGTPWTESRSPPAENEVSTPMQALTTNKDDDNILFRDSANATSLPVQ

[19] = target: T6, soluble human IL-6 receptor; assay: SPR 37C, 3 µM Ca, estimated from Req

T1 sequence (P61769 21-119, one chain of several): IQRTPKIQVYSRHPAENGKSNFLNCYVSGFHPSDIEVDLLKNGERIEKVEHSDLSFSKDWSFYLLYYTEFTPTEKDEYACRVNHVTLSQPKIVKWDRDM

B1: VH3/L(WT)-IgG1-F21 (antibody)
chain 1: QVQLQESGPGLVKPSETLSLTCAVSGHSISHDHAWSWVRQPPGEGLEWIGFISYSGITNYNPSLQGRVTISRDNSKNTLYLQMNSLRAEDTAVYYCARSLARTTAMDYWGEGTLVTVSSASTKGPSVFPLAPSSKSTSGGTAALGCLVKDYFPEPVTVSWNSGALTSGVHTFPAVLQSSGLYSLSSVVTVPSSSLGTQTYICNVNHKPSNTKVDKKVEPKSCDKTHTCPPCPAPELLGGPSVFLFPPKPKDTLYISRTPEVTCVVVDVSHEDPEVKFNWYVDGVEVHNAKTKPREEQYNSTYRVVSVLTPLHQDWLNGKEYKCKVSNKALPAPIEKTISKAKGQPREPQVYTLPPSRDELTKNQVSLTCLVKGFYPSDIAVEWESNGQPENNYKTTPPVLDSDGSFFLYSKLTVDKSRWQQGNVFSCSVMHEALHYHYTQKSLSLSP
chain 2: not shown
- Kd [1]: 30 nM
- binding amount [2]: 112 RU
- binding amount [3]: 371 RU
- binding amount [4]: 242 RU
- binding amount [5]: 315 RU
- Kd [6]: 30 nM
- Kd [7]: 30 nM

B2: VH3/L(WT)-IgG1-F140 (antibody)
chain 1: QVQLQESGPGLVKPSETLSLTCAVSGHSISHDHAWSWVRQPPGEGLEWIGFISYSGITNYNPSLQGRVTISRDNSKNTLYLQMNSLRAEDTAVYYCARSLARTTAMDYWGEGTLVTVSSASTKGPSVFPLAPSSKSTSGGTAALGCLVKDYFPEPVTVSWNSGALTSGVHTFPAVLQSSGLYSLSSVVTVPSSSLGTQTYICNVNHKPSNTKVDKKVEPKSCDKTHTCPPCPAPELLGGPKVFLFPPKPKDTLYISRTPEVTCVVVDVSHEDPEVKFNWYVDGVEVHNAKTKPREEQYNSTYRVVSVLTPLHQDWLNGKEYKCKVSNKALPAPIEKTISKAKGQPREPQVYTLPPSRDELTKNQVSLTCLVKGFYPSDIAVEWESNGQPENNYKTTPPVLDSDGSFFLYSKLTVDKSRWQQGNVFSCSVMHEALHYHYTQKSLSLSP
chain 2: not shown
- Kd [1]: 36 nM
- binding amount [2]: -1.8 RU
- binding amount [3]: 46.6 RU
- binding amount [4]: 108 RU
- Kd [6]: 36 nM
- Kd [8]: 36 nM

B3: VH3/L(WT)-IgG1-F821 (antibody)
chain 1: QVQLQESGPGLVKPSETLSLTCAVSGHSISHDHAWSWVRQPPGEGLEWIGFISYSGITNYNPSLQGRVTISRDNSKNTLYLQMNSLRAEDTAVYYCARSLARTTAMDYWGEGTLVTVSSASTKGPSVFPLAPSSKSTSGGTAALGCLVKDYFPEPVTVSWNSGALTSGVHTFPAVLQSSGLYSLSSVVTVPSSSLGTQTYICNVNHKPSNTKVDKKVEPKSCDKTHTCPPCPAPELRGGPKVFLFPPKPKDTLYISRTPEVTCVVVDVSHEDPEVKFNWYVDGVEVHNAKTKPREEQYNSTYRVVSVLTVLHQDWLNGKEYKCKVSNKALPAPIEKTISKAKGQPREPQVYTLPPSRDELTKNQVSLTCLVKGFYPSDIAVEWESNGQPENNYKTTPPVLDSDGSFFLYSKLTVDKSRWQQGNVFSCSVMHEALHYHYTQKSLSLSP
chain 2: not shown
- Kd [9]: 310 nM
- binding amount [10]: -4.5 RU
- binding amount [11]: -20.3 RU
- binding amount [12]: -3.8 RU
- binding amount [13]: 0.6 RU
- Kd [14]: 310 nM

B4: VH3/L(WT)-IgG1-F424 (antibody)
chain 1: QVQLQESGPGLVKPSETLSLTCAVSGHSISHDHAWSWVRQPPGEGLEWIGFISYSGITNYNPSLQGRVTISRDNSKNTLYLQMNSLRAEDTAVYYCARSLARTTAMDYWGEGTLVTVSSASTKGPSVFPLAPSSKSTSGGTAALGCLVKDYFPEPVTVSWNSGALTSGVHTFPAVLQSSGLYSLSSVVTVPSSSLGTQTYICNVNHKPSNTKVDKKVEPKSCDKTHTCPPCPAPELLGGPKVFLFPPKPKDTLMISRTAEVTCVVVDVSHEDPEVKFNWYVDGVEVHNAKTKPREEQYNSTYRVVSVLTPLHQDWLNGKEYKCKVSNKALPAPIEKTISKAKGQPREPQVYTLPPSRDELTKNQVSLTCLVKGFYPSDIAVEWESNGQPENNYKTTPPVLDSDGSFFLYSKLTVDKSRWQQGNVFSCSVLHEALHYHYTQKSLSLSP
chain 2: not shown
- Kd [1]: 94 nM
- binding amount [2]: -2.5 RU
- binding amount [4]: 138 RU
- Kd [15]: 94 nM

B5: VH3/L(WT)-IgG1-F157 (antibody)
chain 1: QVQLQESGPGLVKPSETLSLTCAVSGHSISHDHAWSWVRQPPGEGLEWIGFISYSGITNYNPSLQGRVTISRDNSKNTLYLQMNSLRAEDTAVYYCARSLARTTAMDYWGEGTLVTVSSASTKGPSVFPLAPSSKSTSGGTAALGCLVKDYFPEPVTVSWNSGALTSGVHTFPAVLQSSGLYSLSSVVTVPSSSLGTQTYICNVNHKPSNTKVDKKVEPKSCDKTHTCPPCPAPELLGGPSVFLFPPKPKDTLMISRTAEVTCVVVDVSHEDPEVKFNWYVDGVEVHNAKTKPREEQYNSTYRVVSVLTPLHQDWLNGKEYKCKVSNKALPAPIEKTISKAKGQPREPQVYTLPPSRDELTKNQVSLTCLVKGFYPSDIAVEWESNGQPENNYKTTPPVLDSDGSFFLYSKLTVDKSRWQQGNVFSCSVLHEALHYHYTQKSLSLSP
chain 2: not shown
- Kd [1]: 150 nM
- binding amount [2]: 129 RU
- binding amount [3]: 276 RU
- binding amount [4]: 243 RU
- binding amount [5]: 315 RU
- Kd [8]: 150 nM

B6: VH3/L(WT)-IgG1-F939 (antibody)
chain 1: QVQLQESGPGLVKPSETLSLTCAVSGHSISHDHAWSWVRQPPGEGLEWIGFISYSGITNYNPSLQGRVTISRDNSKNTLYLQMNSLRAEDTAVYYCARSLARTTAMDYWGEGTLVTVSSASTKGPSVFPLAPSSKSTSGGTAALGCLVKDYFPEPVTVSWNSGALTSGVHTFPAVLQSSGLYSLSSVVTVPSSSLGTQTYICNVNHKPSNTKVDKKVEPKSCDKTHTCPPCPAPELRGGPKVFLFPPKPKDTLYISRTPEVTCVVVDVSHEDPEVKFNWYVDGVEVHNAKTKPREEQYNSTYRVVSVLTVLHQDWLNGKEYKCKVSNKALPAPIEKTISKAKGQPREPQVYTLPPSRDELTKNQVSLTCLVKGFYPSDIAVEWESNGQPENNYKTTPPVLDSDGSFFLYSKLTVDKSRWQQGNVFSCSVMHEALHYHVTQKSLSLSP
chain 2: not shown
- Kd [9]: 150 nM
- binding amount [10]: -6.3 RU
- binding amount [11]: -24.9 RU
- binding amount [12]: -7.3 RU
- binding amount [13]: -2 RU
- Kd [16]: 153 nM
- Kd [17]: 150 nM

B7: 6RL#9-IgG1 (antibody, V domains shown)
VH: QVQLVQSGAEVKKPGASVKVSCKASGYTFTSYYMHWVRQAPGQGLEWMGIINPSGGSTSYAQKFQGRVTMTRDTSTSTVYMELSSLRSEDTAVYYCARDDPGGGEYYFDYWGQGTLVTVSS
VL: QSVLTQPPSVSGAPGQRVTISCTGSRSNMGAGYDVHWYQLLPGAAPKLLISHNTHRPSGVPDRFSGSKSGASASLAITGLQAEDEADYYCQSHDSSLSAVVFGGGTKLTVLS
- Kd [18]: ≥ 31000 nM
- Kd [19]: ~31000 nM

B8: FH4-IgG1 (antibody, V domains shown)
VH: QVQLVQSGAEVKKPGSSVKVSCKASGGTFSSYAISWVRQAPGQGLEWMGGIIPIFGTANYAQKFQGRVTITADESTSTAYMELSSLRSEDTAVYYCARERDYYDSSGYYDAFDIWGQGTMVTVSS
VL: ETTVTQSPSFLSASVGDRVTITCITTTDIDDDMNWFQQEPGKAPKLLISEGNILRPGVPSRFSSSGYGTDFTLTISKLQPEDFATYYCLQSDNLPFTFGQGTKLEIKR
- Kd [18]: ≥ 34000 nM
- Kd [19]: ~34000 nM
